Source: patent publication CN115947850A (BEIJING DONGFANG BIOTECH CO LTD, dated 2023)

Legend:
LILRB5 = LILRB5 (UniProt O75023 24-458, limits assumed); experiment: ELISA, coated LILR protein 100 ng/well
LILRA6 = LILRA6 (UniProt Q6PI73 24-447, limits assumed); experiment: ELISA, coated LILR protein 100 ng/well
LILRB3 = LILRB3 (UniProt O75022 24-443, limits assumed); experiment: ELISA, coated LILR protein 100 ng/well
LILRA5 = LILRA5 (UniProt A6NI73 42-268, limits assumed); experiment: ELISA, coated LILR protein 100 ng/well
LILRA1 = LILRA1 (UniProt O75019 17-461, limits assumed); experiment: ELISA, coated LILR protein 100 ng/well
LILRA4 = LILRA4 (UniProt P59901 24-446, limits assumed); experiment: ELISA, coated LILR protein 100 ng/well
LILRA2 = LILRA2 (UniProt Q8N149 24-449, limits assumed); experiment: ELISA, coated LILR protein 100 ng/well
LILRB1 = LILRB1 (UniProt Q8NHL6 24-461, limits assumed); experiment: ELISA, coated LILR protein 100 ng/well
LILRA3 = LILRA3 (UniProt Q8N6C8 24-439); experiment: ELISA, coated LILR protein 100 ng/well
LILRB2 = LILRB2 (UniProt Q8N423 22-460, limits assumed); experiment: ELISA, coated LILR protein 100 ng/well
[1] = biological target: T1, LILRB4 on the surface of human monocytic leukemia cells (THP-1) (human, UniProt Q8NHJ6 22-448); experiment: flow cytometry on THP-1 cells, FITC goat anti-mouse IgG detection
T1 construct: whole, on cells; also called THP-1细胞表面的LILRB4

[2] = biological target: T2, human LILRB4 extracellular domain (LILRB4抗原, LILRB4蛋白胞外段) (human, UniProt Q8NHJ6 22-259); experiment: ELISA, coated LILRB4 100 ng/well, goat anti-mouse IgG-HRP detection
T2 construct: extracellular domain; also called 人LILRB4

[3] = biological target: T1, LILRB4 on the surface of human …; experiment: cell-based or functional assay
[4] = biological target: T1, LILRB4 on the surface of human …; experiment: flow cytometry competition on THP-1 cells; competitor FITC-labelled ApoE at 0.4 μg/mL

Chain of LILRA5 (A6NI73 42-268 limits assumed): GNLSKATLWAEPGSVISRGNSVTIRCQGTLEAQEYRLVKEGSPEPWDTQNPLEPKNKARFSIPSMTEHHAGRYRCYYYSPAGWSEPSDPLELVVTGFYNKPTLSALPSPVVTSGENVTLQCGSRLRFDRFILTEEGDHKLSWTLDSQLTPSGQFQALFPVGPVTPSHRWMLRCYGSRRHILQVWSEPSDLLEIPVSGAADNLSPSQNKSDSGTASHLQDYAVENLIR
Chain of LILRA2 (Q8N149 24-449 limits assumed): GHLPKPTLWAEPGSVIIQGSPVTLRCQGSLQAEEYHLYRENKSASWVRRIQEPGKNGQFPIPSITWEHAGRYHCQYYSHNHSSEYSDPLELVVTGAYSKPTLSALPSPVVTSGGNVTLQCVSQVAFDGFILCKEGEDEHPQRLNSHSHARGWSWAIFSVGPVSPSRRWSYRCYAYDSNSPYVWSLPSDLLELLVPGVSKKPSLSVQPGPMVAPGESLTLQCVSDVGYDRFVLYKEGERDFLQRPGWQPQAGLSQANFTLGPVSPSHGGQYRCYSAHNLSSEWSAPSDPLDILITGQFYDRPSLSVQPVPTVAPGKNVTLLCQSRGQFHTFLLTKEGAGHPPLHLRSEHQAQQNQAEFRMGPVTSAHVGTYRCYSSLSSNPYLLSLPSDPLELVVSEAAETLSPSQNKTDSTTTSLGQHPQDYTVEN
Chain of LILRA6 (Q6PI73 24-447 limits assumed): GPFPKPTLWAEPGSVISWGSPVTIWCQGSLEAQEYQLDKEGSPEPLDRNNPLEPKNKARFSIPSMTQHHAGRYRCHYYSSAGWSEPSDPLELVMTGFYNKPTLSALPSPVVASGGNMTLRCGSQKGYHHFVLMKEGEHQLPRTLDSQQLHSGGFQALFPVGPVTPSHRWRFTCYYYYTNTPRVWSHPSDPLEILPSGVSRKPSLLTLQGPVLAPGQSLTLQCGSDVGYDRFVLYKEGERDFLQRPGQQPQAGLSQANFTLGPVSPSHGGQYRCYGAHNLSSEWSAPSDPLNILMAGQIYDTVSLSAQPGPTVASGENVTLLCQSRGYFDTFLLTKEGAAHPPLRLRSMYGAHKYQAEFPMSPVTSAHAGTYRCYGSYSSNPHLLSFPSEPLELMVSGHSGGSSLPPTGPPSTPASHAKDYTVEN
Chain of LILRB5 (O75023 24-458 limits assumed): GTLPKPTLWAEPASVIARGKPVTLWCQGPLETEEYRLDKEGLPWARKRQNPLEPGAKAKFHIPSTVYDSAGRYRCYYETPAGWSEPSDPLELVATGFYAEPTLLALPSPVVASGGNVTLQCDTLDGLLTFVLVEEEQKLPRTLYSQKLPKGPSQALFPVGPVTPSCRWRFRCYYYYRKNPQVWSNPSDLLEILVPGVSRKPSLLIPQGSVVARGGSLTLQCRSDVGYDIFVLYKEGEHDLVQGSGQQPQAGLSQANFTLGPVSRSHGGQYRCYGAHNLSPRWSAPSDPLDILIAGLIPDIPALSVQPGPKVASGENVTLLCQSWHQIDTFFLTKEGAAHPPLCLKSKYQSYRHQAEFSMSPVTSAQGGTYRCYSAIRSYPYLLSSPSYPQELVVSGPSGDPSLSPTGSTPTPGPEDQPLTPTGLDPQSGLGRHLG
Chain of LILRB2 (Q8N423 22-460 limits assumed): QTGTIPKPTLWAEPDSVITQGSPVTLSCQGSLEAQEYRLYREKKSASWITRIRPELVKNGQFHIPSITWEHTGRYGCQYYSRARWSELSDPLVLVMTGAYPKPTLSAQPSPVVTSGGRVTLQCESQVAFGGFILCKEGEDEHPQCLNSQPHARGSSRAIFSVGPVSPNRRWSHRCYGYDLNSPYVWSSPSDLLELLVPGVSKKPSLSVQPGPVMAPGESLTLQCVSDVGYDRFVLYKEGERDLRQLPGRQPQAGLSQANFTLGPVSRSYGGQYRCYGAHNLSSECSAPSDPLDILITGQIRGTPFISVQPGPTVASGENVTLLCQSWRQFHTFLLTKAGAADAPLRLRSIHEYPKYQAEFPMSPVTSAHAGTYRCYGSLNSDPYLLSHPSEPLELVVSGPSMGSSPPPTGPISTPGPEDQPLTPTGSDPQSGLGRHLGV
Chain of LILRB1 (Q8NHL6 24-461 limits assumed): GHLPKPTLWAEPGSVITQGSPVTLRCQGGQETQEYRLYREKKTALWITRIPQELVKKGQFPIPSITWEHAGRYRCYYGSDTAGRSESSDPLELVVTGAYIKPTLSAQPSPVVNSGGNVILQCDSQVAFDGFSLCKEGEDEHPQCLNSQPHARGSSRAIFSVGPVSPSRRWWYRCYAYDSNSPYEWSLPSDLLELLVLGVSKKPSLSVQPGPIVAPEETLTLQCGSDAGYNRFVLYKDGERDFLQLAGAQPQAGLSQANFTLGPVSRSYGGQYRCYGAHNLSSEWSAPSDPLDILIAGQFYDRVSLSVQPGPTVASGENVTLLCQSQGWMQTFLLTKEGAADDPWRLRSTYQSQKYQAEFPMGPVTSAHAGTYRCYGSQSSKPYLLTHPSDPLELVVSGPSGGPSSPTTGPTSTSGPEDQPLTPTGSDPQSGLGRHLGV
Chain of LILRA1 (O75019 17-461 limits assumed): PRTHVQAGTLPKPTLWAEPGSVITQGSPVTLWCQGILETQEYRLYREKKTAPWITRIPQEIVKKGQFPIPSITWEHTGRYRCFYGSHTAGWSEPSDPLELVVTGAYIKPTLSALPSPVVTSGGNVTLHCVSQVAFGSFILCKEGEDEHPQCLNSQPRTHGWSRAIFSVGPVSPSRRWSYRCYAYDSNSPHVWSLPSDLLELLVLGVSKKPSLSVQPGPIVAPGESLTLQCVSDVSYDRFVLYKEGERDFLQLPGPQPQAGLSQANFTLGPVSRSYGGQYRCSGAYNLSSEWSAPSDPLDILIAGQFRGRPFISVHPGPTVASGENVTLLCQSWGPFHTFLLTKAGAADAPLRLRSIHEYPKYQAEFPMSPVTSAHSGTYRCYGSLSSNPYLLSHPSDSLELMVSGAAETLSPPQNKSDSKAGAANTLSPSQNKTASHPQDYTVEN
Chain of LILRB3 (O75022 24-443 limits assumed): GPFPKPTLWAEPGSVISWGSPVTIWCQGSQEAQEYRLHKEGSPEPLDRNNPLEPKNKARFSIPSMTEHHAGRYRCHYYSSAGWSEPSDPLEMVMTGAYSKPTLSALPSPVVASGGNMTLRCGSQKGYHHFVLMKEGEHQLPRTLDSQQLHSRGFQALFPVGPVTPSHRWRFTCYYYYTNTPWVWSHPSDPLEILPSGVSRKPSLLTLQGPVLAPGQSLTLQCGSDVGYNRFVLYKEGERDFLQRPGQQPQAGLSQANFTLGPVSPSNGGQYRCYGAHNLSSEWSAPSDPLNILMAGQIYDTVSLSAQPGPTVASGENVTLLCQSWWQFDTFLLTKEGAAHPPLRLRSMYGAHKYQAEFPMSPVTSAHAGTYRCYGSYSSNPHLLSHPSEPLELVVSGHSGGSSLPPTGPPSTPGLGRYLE
Chain of LILRA4 (P59901 24-446 limits assumed): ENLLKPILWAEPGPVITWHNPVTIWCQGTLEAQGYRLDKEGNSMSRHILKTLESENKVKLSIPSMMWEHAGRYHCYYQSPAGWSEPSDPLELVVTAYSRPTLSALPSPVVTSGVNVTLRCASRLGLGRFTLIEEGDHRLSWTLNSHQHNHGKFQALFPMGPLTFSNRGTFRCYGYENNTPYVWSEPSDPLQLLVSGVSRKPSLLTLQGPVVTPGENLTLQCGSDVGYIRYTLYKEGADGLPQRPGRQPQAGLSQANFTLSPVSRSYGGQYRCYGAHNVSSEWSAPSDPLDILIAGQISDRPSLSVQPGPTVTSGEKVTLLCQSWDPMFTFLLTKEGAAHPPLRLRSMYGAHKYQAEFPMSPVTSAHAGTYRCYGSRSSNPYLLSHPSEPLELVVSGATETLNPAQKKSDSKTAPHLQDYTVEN
Chain of LILRA3 (Q8N6C8 24-439 limits assumed): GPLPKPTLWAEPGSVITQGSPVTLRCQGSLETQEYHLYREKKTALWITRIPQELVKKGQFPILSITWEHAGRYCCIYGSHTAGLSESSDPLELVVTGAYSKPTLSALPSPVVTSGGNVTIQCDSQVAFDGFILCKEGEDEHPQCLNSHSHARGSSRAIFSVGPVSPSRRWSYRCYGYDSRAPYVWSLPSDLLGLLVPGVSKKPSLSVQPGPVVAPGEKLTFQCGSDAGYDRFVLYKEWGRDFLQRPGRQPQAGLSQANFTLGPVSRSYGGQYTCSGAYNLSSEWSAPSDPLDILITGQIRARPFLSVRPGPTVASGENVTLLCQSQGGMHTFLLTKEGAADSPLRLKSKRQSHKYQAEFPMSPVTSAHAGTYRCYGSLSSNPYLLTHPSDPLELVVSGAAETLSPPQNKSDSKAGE

binding result (LILRB5): no binding (tested: 50μg/mL) | binding result (LILRA6): no binding (tested: 50μg/mL) | binding result (LILRB3): no binding (tested: 50μg/mL) | binding result (LILRA5): no binding (tested: 50μg/mL) | binding result (LILRA1): no binding (tested: 50μg/mL) | binding result (LILRA4): no binding (tested: 50μg/mL) | binding result (LILRA2): no binding (tested: 50μg/mL) | binding result (LILRB1): no binding (tested: 50μg/mL) | binding result (LILRA3): no binding (tested: 50μg/mL) | binding result (LILRB2): no binding (tested: 50μg/mL) | EC50 [1]: 5.48 mg/L | EC50 [2]: 0.375 mg/L | IC50 of inhibition of ARG1 secretion by THP-1 cells in the presence of ApoE (arginase activity kit) [3]: 330 mg/L | IC50 [4]: 9.69 mg/L
B1: ME-Ⅰ anti-LILRB4 monoclonal antibody (mouse IgG1 / Cκ) (antibody, V domains shown)
VH: EVQLEQSGAEVVKPGASVKLSCKASGYTFISYWMHWVKQRPGQGLEWIGEINPTNGRTNYNEKFKSKATLTVDKSSGTAYMQLSSLTSEDSAVYYCARWGQLGLREGYYAVDYWGQGTSVTVSS
VL: DIVLTQSPSSLSASLGDRVTISCRASQDISNYLNWYQQNPNGTVKLLIYYTSRLHSGVPSRFSGSGSGTDYSLTISNLEQEDIATYFCQQGDTLPPTFGGGTKLEIKA
notes: also called 单克隆抗体ME-Ⅰ; ME-Ⅰ抗LILRB4单克隆抗体
